The assay concerns the target T1, Flag-Rab11b (full length) (human, UniProt Q15907 1-218).
T1 construct: human Rab11b, full length cDNA in a modified pFastbac HT; the nucleotide state is told by the assay; also called Rab11b-GTPγS; Rab11b-GDPβS; source: Sf9, baculovirus, purified (Ni-NTA); not shown: FLAG, N-terminal, kept
T1 sequence (looked up): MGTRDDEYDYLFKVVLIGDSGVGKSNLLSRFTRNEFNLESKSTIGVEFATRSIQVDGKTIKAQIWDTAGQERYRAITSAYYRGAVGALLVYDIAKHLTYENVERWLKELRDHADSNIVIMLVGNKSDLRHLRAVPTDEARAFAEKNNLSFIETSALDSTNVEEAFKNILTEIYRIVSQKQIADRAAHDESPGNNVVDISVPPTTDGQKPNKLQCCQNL
Description: pull-down; GST fusion on Glutathione Sepharose 4B; Flag-Rab11b pre-treated with 5-fold excess GTPγS (30 min, 37 °C); 10 µM Rab11b, 2.5 µM Myo5b Tail, 20 µM GTPγS, 20 mM Tris-HCl pH 7.5, 150 mM NaCl, 1 mM MgCl2, 1 mM EGTA, 1 mM DTT, 0.05% Tween, 1% BSA, 4 °C, 1 h; anti-flag Western blot. The settings on record: both partners purified. For orientation: A western blot detects proteins with antibodies after separation by electrophoresis.

B1: GST-Rab11FIP3 Rab binding domain (694-756 a.a.) (domain or fragment, human, UniProt O75154 694-756, looked up)
chain: QGAKSLFSTAFSESLAAEISSVSRDELMEAIQKQEEINFRLQDYIDRIIVAIMETNPSILEVK
notes: Cloned in pET-30a with GST at the N-terminus and 6xHis at the C-terminus; also called GST-FIP3 RBD; GST-FIP3-RBD; source: E. coli BL21 (DE3), purified (Ni-NTA); not shown: GST, N-terminal, kept
On to B1, for which the binding result was “binds”.

Source of the values: PMC9101030, “Myo5b Transports Fibronectin-Containing Vesicles and Facilitates FN1 Secretion from Human Pleural Mesothelial Cells” (International Journal of Molecular Sciences, 2022).
